Patent US20130316376A1 (SPIBER TECHNOLOGIES, published 2013)

B1: His6AbdQGRep4CT (designed binder)
chain: MGSSGHHHHHHMLAEAKVLANRELDKYGVSDYYKNLINNAKTVEGVKALIDEILAALPLEALFQGPNSGQGGYGGLGQGGYGQGAGSSAAAAAAAAAAAAGGQGGQGQGGYGQGSGGSAAAAAAAAAAAAAAAGRGQGGYGQGSGGNAAAAAAAAAAAAAAAGQGGQGGYGRQSQGAGSAAAAAAAAAAAAAAGSGQGGYGGQGQGGYGQSSASASAAASAASTVANSVSRLSSPSAVSRVSSAVSSLVSNGQVNMAALPNIISNISSSVSASAPGASGCEVIVQALLEVITALVQIVSSSSVGYINPSAVNQITNVVANAMAQVMG
notes: tested as films and fibers; also called Abd-Rep4CT; HisAbdQG4RepCT
B2: Rep4CT (Protease 3C cleavage product of His6ZQGRep4CT) (other)
chain: GQGGYGGLGQGGYGQGAGSSAAAAAAAAAAAAGGQGGQGQGGYGQGSGGSAAAAAAAAAAAAAAAGRGQGGYGQGSGGNAAAAAAAAAAAAAAAGQGGQGGYGRQSQGAGSAAAAAAAAAAAAAAGSGQGGYGGQGQGGYGQSSASASAAASAASTVANSVSRLSSPSAVSRVSSAVSSLVSNGQVNMAALPNIISNISSSVSASAPGASGCEVIVQALLEVITALVQIVSSSSVGYINPSAVNQITNVVANAMAQVMG
notes: made by cleaving His6ZQGRep4CT; also called GP-Rep4CT

Legend:
[1] = biological target: T1, albumin from human blood plasma (human, UniProt P02768 25-609); assay: films incubated with human blood plasma, low pH elution, non-reducing SDS-PAGE
T1 construct: mature; Native plasma protein; also called human albumin

[2] = biological target: T2, albumin from rabbit serum (rabbit, UniProt P49065 25-608); assay: fibers incubated with rabbit serum, low pH elution, non-reducing SDS-PAGE
T2 construct: mature; Native serum protein; the form follows from the source (serum); also called albumin (~70 kDa)
T2 sequence (P49065 25-608): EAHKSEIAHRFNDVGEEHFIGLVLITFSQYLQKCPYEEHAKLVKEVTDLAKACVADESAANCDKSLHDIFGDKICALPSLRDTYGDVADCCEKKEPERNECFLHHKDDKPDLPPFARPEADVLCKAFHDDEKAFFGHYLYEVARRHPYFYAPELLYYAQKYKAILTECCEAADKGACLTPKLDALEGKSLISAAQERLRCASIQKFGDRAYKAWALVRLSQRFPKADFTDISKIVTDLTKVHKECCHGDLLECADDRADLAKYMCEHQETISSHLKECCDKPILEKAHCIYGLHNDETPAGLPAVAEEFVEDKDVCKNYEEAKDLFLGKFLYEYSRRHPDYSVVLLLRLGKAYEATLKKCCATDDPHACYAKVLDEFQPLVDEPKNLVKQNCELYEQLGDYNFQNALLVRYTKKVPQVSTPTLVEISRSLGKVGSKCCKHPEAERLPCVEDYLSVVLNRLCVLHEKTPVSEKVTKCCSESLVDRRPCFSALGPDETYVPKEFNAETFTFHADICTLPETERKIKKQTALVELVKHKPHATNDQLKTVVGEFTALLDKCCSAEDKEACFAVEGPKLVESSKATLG

Binder	binding result [1]	binding result [2]
B1	binds	
B2		binds
